Source: PMC3076674 (Nature structural & molecular biology, 2011)

Biological target: T1, MED25 VP16-binding domain (VBD) (human, UniProt Q71SY5 390-553)
T1 sequence (looked up): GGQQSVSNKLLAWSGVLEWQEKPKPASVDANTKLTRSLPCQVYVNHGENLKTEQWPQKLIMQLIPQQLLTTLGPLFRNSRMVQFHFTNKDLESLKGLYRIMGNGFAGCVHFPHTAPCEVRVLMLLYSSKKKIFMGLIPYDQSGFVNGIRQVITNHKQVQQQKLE
Experiment: ITC

B1: VP16 TAD (full-length transactivation domain, amino acids 411-490) (domain or fragment, Herpes simplex virus 1, UniProt P06492 411-490, looked up)
chain: STAPPTDVSLGDELHLDGEDVAMAHADALDDFDLDMLGDGDSPGPGFTPHDSAPYGALDMADFEFEQMFTDALGIDEYGG
  Kd: ~50 nM
